Laboratory results published in paper PMC5740162, “Cryo-EM structure of a licensed DNA replication origin” (Nature Communications, 2017).

How the values were obtained:
[1] = molecular target: T1, Mcm4 (budding yeast, UniProt P30665 1-933); test: cryo-EM structure; MCM loaded on bead-immobilised biotinylated 2.8 kb ARS1 DNA with ORC, Cdc6, ATP; with or without DDK; high-salt wash (0.3 M KCl); DNA released by MseI in EM buffer (25 mM Hepes 7.6, 5 mM Mg-acetate, 250 mM K-glutamate); lacey carbon grids, Titan Krios/K2; conditions: both partners purified
T1 construct: Mcm4, subunit of the yeast Mcm2-7 helicase; Subunit as it stands in the loaded, unmodified MCM double hexamer
T1 sequence: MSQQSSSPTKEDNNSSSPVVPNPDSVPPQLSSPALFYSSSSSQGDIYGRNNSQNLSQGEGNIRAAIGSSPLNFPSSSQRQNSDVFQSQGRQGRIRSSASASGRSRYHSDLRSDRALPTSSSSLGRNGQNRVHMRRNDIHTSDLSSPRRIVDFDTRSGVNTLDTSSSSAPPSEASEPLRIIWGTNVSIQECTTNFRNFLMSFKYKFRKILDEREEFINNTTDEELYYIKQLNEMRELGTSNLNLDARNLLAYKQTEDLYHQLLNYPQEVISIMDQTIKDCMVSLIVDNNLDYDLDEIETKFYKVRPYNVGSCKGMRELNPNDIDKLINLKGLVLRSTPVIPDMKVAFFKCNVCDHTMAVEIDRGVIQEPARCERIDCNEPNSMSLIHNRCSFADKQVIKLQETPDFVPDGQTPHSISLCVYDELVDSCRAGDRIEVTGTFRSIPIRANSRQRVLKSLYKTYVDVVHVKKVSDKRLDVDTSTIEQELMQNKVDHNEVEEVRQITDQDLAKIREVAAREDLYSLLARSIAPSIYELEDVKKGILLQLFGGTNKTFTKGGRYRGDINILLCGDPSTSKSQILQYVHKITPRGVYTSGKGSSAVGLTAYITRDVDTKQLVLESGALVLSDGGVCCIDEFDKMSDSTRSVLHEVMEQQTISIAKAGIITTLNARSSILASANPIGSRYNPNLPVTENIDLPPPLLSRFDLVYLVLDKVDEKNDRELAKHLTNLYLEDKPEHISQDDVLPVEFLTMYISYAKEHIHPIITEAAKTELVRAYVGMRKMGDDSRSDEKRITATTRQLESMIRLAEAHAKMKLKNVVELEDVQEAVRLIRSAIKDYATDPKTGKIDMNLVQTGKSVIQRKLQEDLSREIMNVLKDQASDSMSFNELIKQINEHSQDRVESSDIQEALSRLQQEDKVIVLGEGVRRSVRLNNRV

[2] = molecular target: T2, Mcm3 (budding yeast, UniProt P24279 1-971); test: as above; conditions: both partners purified
T2 construct: Mcm3, subunit of the yeast Mcm2-7 helicase; Subunit as it stands in the loaded, unmodified MCM double hexamer; The complex was purified on calmodulin resin
T2 sequence (P24279 whole entry): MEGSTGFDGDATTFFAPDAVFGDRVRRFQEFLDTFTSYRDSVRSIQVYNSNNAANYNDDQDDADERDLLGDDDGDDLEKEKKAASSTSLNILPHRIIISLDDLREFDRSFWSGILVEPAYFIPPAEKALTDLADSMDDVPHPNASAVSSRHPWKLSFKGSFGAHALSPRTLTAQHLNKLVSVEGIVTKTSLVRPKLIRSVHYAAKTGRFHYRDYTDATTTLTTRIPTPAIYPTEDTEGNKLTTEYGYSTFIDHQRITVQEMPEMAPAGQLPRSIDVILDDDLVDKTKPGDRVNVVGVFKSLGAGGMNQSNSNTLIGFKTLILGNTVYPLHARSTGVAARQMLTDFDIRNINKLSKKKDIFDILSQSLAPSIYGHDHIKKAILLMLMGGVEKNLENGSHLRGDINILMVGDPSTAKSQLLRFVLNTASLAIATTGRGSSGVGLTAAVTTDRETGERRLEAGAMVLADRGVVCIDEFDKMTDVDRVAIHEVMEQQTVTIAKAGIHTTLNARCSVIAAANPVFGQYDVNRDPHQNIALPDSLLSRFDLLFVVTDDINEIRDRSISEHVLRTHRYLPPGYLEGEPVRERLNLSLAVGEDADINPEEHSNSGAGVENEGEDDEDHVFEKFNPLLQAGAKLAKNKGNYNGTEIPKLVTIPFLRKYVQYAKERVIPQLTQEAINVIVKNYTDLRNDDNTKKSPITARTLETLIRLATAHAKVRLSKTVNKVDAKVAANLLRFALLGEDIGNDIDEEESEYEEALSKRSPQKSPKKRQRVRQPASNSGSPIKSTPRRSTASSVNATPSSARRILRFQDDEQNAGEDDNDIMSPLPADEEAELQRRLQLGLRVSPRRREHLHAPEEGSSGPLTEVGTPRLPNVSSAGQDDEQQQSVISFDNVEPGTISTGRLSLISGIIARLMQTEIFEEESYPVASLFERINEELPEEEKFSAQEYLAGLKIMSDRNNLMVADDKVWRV

binding result [1]: binds | binding result [2]: binds
B1: Mcm7 (natural protein, budding yeast)
chain: MSAALPSIQLPVDYNNLFNEITDFLVTFKQDTLSSDATRNENEDENLDAENIEQHLLEKGPKYMAMLQKVANRELNSVIIDLDDILQYQNEKFLQGTQADDLVSAIQQNANHFTELFCRAIDNNMPLPTKEIDYKDDVLDVILNQRRLRNERMLSDRTNEIRSENLMDTTMDPPSSMNDALREVVEDETELFPPNLTRRYFLYFKPLSQNCARRYRKKAISSKPLSVRQIKGDFLGQLITVRGIITRVSDVKPAVEVIAYTCDQCGYEVFQEVNSRTFTPLSECTSEECSQNQTKGQLFMSTRASKFSAFQECKIQELSQQVPVGHIPRSLNIHVNGTLVRSLSPGDIVDVTGIFLPAPYTGFKALKAGLLTETYLEAQFVRQHKKKFASFSLTSDVEERVMELITSGDVYNRLAKSIAPEIYGNLDVKKALLLLLVGGVDKRVGDGMKIRGDINVCLMGDPGVAKSQLLKAICKISPRGVYTTGKGSSGVGLTAAVMKDPVTDEMILEGGALVLADNGICCIDEFDKMDESDRTAIHEVMEQQTISISKAGINTTLNARTSILAAANPLYGRYNPRLSPLDNINLPAALLSRFDILFLMLDIPSRDDDEKLAEHVTYVHMHNKQPDLDFTPVEPSKMREYIAYAKTKRPVMSEAVNDYVVQAYIRLRQDSKREMDSKFSFGQATPRTLLGIIRLSQALAKLRLADMVDIDDVEEALRLVRVSKESLYQETNKSKEDESPTTKIFTIIKKMLQETGKNTLSYENIVKTVRLRGFTMLQLSNCIQEYSYLNVWHLINEGNTLKFVDDGTMDTDQEDSLVSTPKLAPQTTASANVSAQDSDIDLQDA
notes: Mcm7, subunit of the yeast Mcm2-7 helicase; Subunit as it stands in the loaded, unmodified MCM double hexamer
